Test results from US20220152100A1, “METHODS FOR CONTROLLED ACTIVATION OR ELIMINATION OF THERAPEUTIC CELLS” (Bellicum Pharmaceuticals, Inc., priority 2014, published 2022).

Tested on: HEK293T/16 cells
Test: SEAP-based surrogate killing assay of iCasp9 mutants
Format: cell-based, human
Conditions: for effect on basal / catalytic activity: in words, versus wild type
Method: Early passage HEK293T/16 cells (ATCC, Manassas, Va.) were maintained in IMDM, GlutaMAX™ (Life Technologies, Carlsbad, Calif.) supplemented with 10% FBS, 100 U/mL penicillin, and 100 […] until transfection in a humidified, 37° C., 5% CO2/95% air atmosphere. Cells in logarithmic-phase growth were transiently transfected with 800 ng to 2 μg of expression plasmid encoding iCasp9 mutants and 500 ng of an expression plasmid encoding SRα promoter driven SEAP per million cells in 15-mL conical tubes. […] GeneJammer® Transfection Reagent at a ratio of 3 μl per ug of plasmid DNA was used to transiently transfect HEK293T/16 cells in the absence of antibiotics. 100 μl or 2 mL of the transfection mixture was added to each well in 96-well or 6-well plate, respectively.
Briefly, after 65° C. heat denaturation for 45 minutes to reduce background caused by endogenous (and serum-derived) alkaline phosphatases that are sensitive to heat, 5 μl of supernatants was added to 95 μl of PBS and added to 100 μl of substrate buffer, containing 1 μl of 100 mM 4-methylumbelliferyl phosphate (4-MUP; Sigma, St. Louis, Mo.) re-suspended in 2 M diethanolamine. Hydrolysis of 4-MUP by SEAP produces a fluorescent […] with excitation/emission (355/460 nm), which can be easily measured. Assays were performed in black opaque 96-well plates to minimize fluorescence leakage between wells. […] of the mixture was seeded onto each well of a 96-well plate. […] For the assay, 4-methylumbelliferyl phosphate substrate was hydrolyzed by SEAP to 4-methylumbelliferon, a metabolite that can be excited with 364 nm and detected with an emission filter of 448 nm. Since SEAP is used as a marker for cell viability, reduced SEAP reading corresponds with increased iCaspase-9 activities.

Row | Molecule | relative SEAP activity Units (basal, without AP1903) (1 μg iCasp9 per million cells) | relative SEAP activity Units (basal, without AP1903) (2 μg iCasp9 per million cells) | effect on basal / catalytic activity
1 | D330A-N405Q: chimeric modified Caspase-9 polypeptide, double mutant, SEQ ID NO: 28 (protein) GFGDVGALESLRGNADLAYILSMEPCGHCLIINNVNFCRESGLRTRTGSNIDCEKLRRRFSSLHFMVEVKGDLTAKKMVLALLELARQDHGALDCCVVVILSHGCQASHLQFPGAVYGTDGCPVSVEKIVNIFNGTSCPSLGGKPKLFFIQACGGEQKDHGFEVASTSPEDESPGSNPEPDATPFQEGLRTFDQLAAISSLPTPSDIFVSYSTFPGFVSWRDPKSGSWYVETLDDIFEQWAHSEDLQSLLLRVANAVSVKGIYKQMPGCFQFLRKKLFFKTS | 205772 | 174366 | intermediate
2 | N405A: chimeric modified Caspase-9 polypeptide (protein, UniProt P55211 1-416, looked up, variant N405A, chimeric, fused to dimerization domain, chimeric modified Caspase-9 polypeptide) MDEADRRLLRRCRLRLVEELQVDQLWDALLSRELFRPHMIEDIQRAGSGSRRDQARQLIIDLETRGSQALPLFISCLEDTGQDMLASFLRTNRQAAKLSKPTLENLTPVVLRPEIRKPEVLRPETPRPVDIGSGGFGDVGALESLRGNADLAYILSMEPCGHCLIINNVNFCRESGLRTRTGSNIDCEKLRRRFSSLHFMVEVKGDLTAKKMVLALLELAQQDHGALDCCVVVILSHGCQASHLQFPGAVYGTDGCPVSVEKIVNIFNGTSCPSLGGKPKLFFIQACGGEQKDHGFEVASTSPEDESPGSNPEPDATPFQEGLRTFDQLDAISSLPTPSDIFVSYSTFPGFVSWRDPKSGSWYVETLDDIFEQWAHSEDLQSLLLRVANAVSVKGIYKQMPGCFAFLRKKLFFKTS |  |  | no effect
3 | C403P: chimeric modified Caspase-9 polypeptide (protein, UniProt P55211 1-416, looked up, variant C403P, chimeric, fused to dimerization domain, chimeric modified Caspase-9 polypeptide) MDEADRRLLRRCRLRLVEELQVDQLWDALLSRELFRPHMIEDIQRAGSGSRRDQARQLIIDLETRGSQALPLFISCLEDTGQDMLASFLRTNRQAAKLSKPTLENLTPVVLRPEIRKPEVLRPETPRPVDIGSGGFGDVGALESLRGNADLAYILSMEPCGHCLIINNVNFCRESGLRTRTGSNIDCEKLRRRFSSLHFMVEVKGDLTAKKMVLALLELAQQDHGALDCCVVVILSHGCQASHLQFPGAVYGTDGCPVSVEKIVNIFNGTSCPSLGGKPKLFFIQACGGEQKDHGFEVASTSPEDESPGSNPEPDATPFQEGLRTFDQLDAISSLPTPSDIFVSYSTFPGFVSWRDPKSGSWYVETLDDIFEQWAHSEDLQSLLLRVANAVSVKGIYKQMPGPFNFLRKKLFFKTS |  |  | catalytically inactive
4 | ^402GCFNF^406AAAAA: Caspase-9 with dimerization residues 402-406 replaced by AAAAA (protein, UniProt P55211 1-416, looked up, variant G402A C403A F404A N405A F406A) MDEADRRLLRRCRLRLVEELQVDQLWDALLSRELFRPHMIEDIQRAGSGSRRDQARQLIIDLETRGSQALPLFISCLEDTGQDMLASFLRTNRQAAKLSKPTLENLTPVVLRPEIRKPEVLRPETPRPVDIGSGGFGDVGALESLRGNADLAYILSMEPCGHCLIINNVNFCRESGLRTRTGSNIDCEKLRRRFSSLHFMVEVKGDLTAKKMVLALLELAQQDHGALDCCVVVILSHGCQASHLQFPGAVYGTDGCPVSVEKIVNIFNGTSCPSLGGKPKLFFIQACGGEQKDHGFEVASTSPEDESPGSNPEPDATPFQEGLRTFDQLDAISSLPTPSDIFVSYSTFPGFVSWRDPKSGSWYVETLDDIFEQWAHSEDLQSLLLRVANAVSVKGIYKQMPAAAAALRKKLFFKTS |  |  | catalytically inactive
5 | G402Y: chimeric modified Caspase-9 polypeptide (protein, UniProt P55211 1-416, looked up, variant G402Y, chimeric, fused to dimerization domain, chimeric modified Caspase-9 polypeptide) MDEADRRLLRRCRLRLVEELQVDQLWDALLSRELFRPHMIEDIQRAGSGSRRDQARQLIIDLETRGSQALPLFISCLEDTGQDMLASFLRTNRQAAKLSKPTLENLTPVVLRPEIRKPEVLRPETPRPVDIGSGGFGDVGALESLRGNADLAYILSMEPCGHCLIINNVNFCRESGLRTRTGSNIDCEKLRRRFSSLHFMVEVKGDLTAKKMVLALLELAQQDHGALDCCVVVILSHGCQASHLQFPGAVYGTDGCPVSVEKIVNIFNGTSCPSLGGKPKLFFIQACGGEQKDHGFEVASTSPEDESPGSNPEPDATPFQEGLRTFDQLDAISSLPTPSDIFVSYSTFPGFVSWRDPKSGSWYVETLDDIFEQWAHSEDLQSLLLRVANAVSVKGIYKQMPYCFNFLRKKLFFKTS |  |  | catalytically inactive
6 | G402I: chimeric modified Caspase-9 polypeptide (protein, UniProt P55211 1-416, looked up, variant G402I, chimeric, fused to dimerization domain, chimeric modified Caspase-9 polypeptide) MDEADRRLLRRCRLRLVEELQVDQLWDALLSRELFRPHMIEDIQRAGSGSRRDQARQLIIDLETRGSQALPLFISCLEDTGQDMLASFLRTNRQAAKLSKPTLENLTPVVLRPEIRKPEVLRPETPRPVDIGSGGFGDVGALESLRGNADLAYILSMEPCGHCLIINNVNFCRESGLRTRTGSNIDCEKLRRRFSSLHFMVEVKGDLTAKKMVLALLELAQQDHGALDCCVVVILSHGCQASHLQFPGAVYGTDGCPVSVEKIVNIFNGTSCPSLGGKPKLFFIQACGGEQKDHGFEVASTSPEDESPGSNPEPDATPFQEGLRTFDQLDAISSLPTPSDIFVSYSTFPGFVSWRDPKSGSWYVETLDDIFEQWAHSEDLQSLLLRVANAVSVKGIYKQMPICFNFLRKKLFFKTS |  |  | catalytically inactive
7 | N405F: chimeric modified Caspase-9 polypeptide (protein, UniProt P55211 1-416, looked up, variant N405F, chimeric, fused to dimerization domain, chimeric modified Caspase-9 polypeptide) MDEADRRLLRRCRLRLVEELQVDQLWDALLSRELFRPHMIEDIQRAGSGSRRDQARQLIIDLETRGSQALPLFISCLEDTGQDMLASFLRTNRQAAKLSKPTLENLTPVVLRPEIRKPEVLRPETPRPVDIGSGGFGDVGALESLRGNADLAYILSMEPCGHCLIINNVNFCRESGLRTRTGSNIDCEKLRRRFSSLHFMVEVKGDLTAKKMVLALLELAQQDHGALDCCVVVILSHGCQASHLQFPGAVYGTDGCPVSVEKIVNIFNGTSCPSLGGKPKLFFIQACGGEQKDHGFEVASTSPEDESPGSNPEPDATPFQEGLRTFDQLDAISSLPTPSDIFVSYSTFPGFVSWRDPKSGSWYVETLDDIFEQWAHSEDLQSLLLRVANAVSVKGIYKQMPGCFFFLRKKLFFKTS |  |  | lowered basal activity
8 | ^402GCFNF^406ISAQT (Casp-10): Caspase-9 with dimerization residues 402-406 replaced by those of Caspase-10 (protein, UniProt P55211 1-416, looked up, variant G402I C403S F404A N405Q F406T, Caspase-10 dimerization residues swapped in) MDEADRRLLRRCRLRLVEELQVDQLWDALLSRELFRPHMIEDIQRAGSGSRRDQARQLIIDLETRGSQALPLFISCLEDTGQDMLASFLRTNRQAAKLSKPTLENLTPVVLRPEIRKPEVLRPETPRPVDIGSGGFGDVGALESLRGNADLAYILSMEPCGHCLIINNVNFCRESGLRTRTGSNIDCEKLRRRFSSLHFMVEVKGDLTAKKMVLALLELAQQDHGALDCCVVVILSHGCQASHLQFPGAVYGTDGCPVSVEKIVNIFNGTSCPSLGGKPKLFFIQACGGEQKDHGFEVASTSPEDESPGSNPEPDATPFQEGLRTFDQLDAISSLPTPSDIFVSYSTFPGFVSWRDPKSGSWYVETLDDIFEQWAHSEDLQSLLLRVANAVSVKGIYKQMPISAQTLRKKLFFKTS |  |  | reduced basal activity but higher IC50
